This is an account of results in publication PMC3686915.

The target of this series is NFATc2 full length;cJun full length (;, UniProt Q13469-2;P05412 1-921;1-331, |). The series is described as follows: DNA pull-down, Western blot.

On to GATAATATTTTTCCAGAATTACACAAATTCTGGAAAAATATTATC (structured_DNA, 5' biotin) [-45 NFAT hairpin], for which the binding result was “binds”.
